Assay [1] addresses ZIKV E protein on wild-type Zika virus H/PF/2013 in culture supernatant (Zika virus (strain H/PF/2013)). Kind of assay: ELISA; ZIKV capture ELISA: virus in culture supernatant captured by plate-bound mAb 4G2; serially diluted Fabs added 1 h at 37°C; anti-human Fab alkaline phosphatase; EC50 from titration. (ELISA stands for enzyme-linked immunosorbent assay.)
Assay [2] deals with recombinant ZIKV E protein (ectodomain of Zika virus envelope glycoprotein E) (Zika virus). Kind of assay: crystal structure; recombinant ZIKV E and G9E Fab mixed 1:1.2 at room temperature for 30 min, complex purified on Superdex 200-increase; crystals in 100 mM HEPES pH 7.5, 10% (w/v) PEG 8000; 3.4 Å.

In assay [1], “G9E-S1/2 Fab (paratope mutant D53A, D54A, D57S, Q58A, K76S)” registered a fold weaker binding than G9E-S2 of 30 fold. In assay [1], “G9E-S2 Fab (paratope mutant D57S, Q58A, K76S)” showed a fold reduction in binding compared to WT G9E of 10 fold. Regarding “recombinant ZIKV E protein (ectodomain of Zika virus envelope glycoprotein E) (domain or fragment)”, in assay [2], the stoichiometry N was determined as 2.

The term stoichiometry N denotes a count of units in the complex or per binding partner.

(Values after PMC9870165.)
